Test results: patent US20240390422A1 (QUELL THERAPEUTICS, published 2024)

T1: Biotinylated Human TREM2 Protein,His,Avitag (TR2-H82E7, ACRObiosystems) (human, UniProt Q9NZC2 19-174, biotinylated (Avitag))
T1 construct: Bought protein; also called huTREM2,Biotin,His,Avitag; Biotinylated human TREM2 protein with a streptavidin tag; not shown: His tag and Avitag
T1 sequence (looked up): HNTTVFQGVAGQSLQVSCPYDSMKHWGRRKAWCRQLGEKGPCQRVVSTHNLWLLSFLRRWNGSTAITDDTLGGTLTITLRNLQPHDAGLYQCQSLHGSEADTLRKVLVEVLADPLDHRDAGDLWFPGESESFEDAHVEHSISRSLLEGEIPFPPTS

B1: construct 3 (anti-TREM2 CAR comprising a TREM2 scFv) (other)
chain: EVQLVQSGAEVKKPGESLKISCKGSGYTFTSYWIGWVRQMPGKGLEWMGIIYPGDSDTRYSPSFQGQVTISVDKSSSTAYLQWSSLKASDTAIYYCTRQAIAVTGLGGFDPWGQGTLVTVSSGGGGSGGGGSGGGGSEIVLTQSPGTLSLSPGERATLSCRASQSVSSSYLAWYQQKPGQAPRLLIYGASSRATGIPDRFSGSGSGTDFTLTISRLEPEDFALYYCQQYDTSPFTFGPGTKVDIKLRVFSSVVPVLQKVNSTTTKPVLRTPSPVHPTGTSQPQRPEDCRPRGSVKGTGLDFACDIYIWAPLAGICVALLLSLIITLICYHRQLWTNSRRNRLLQSDYMNMTPRRPGLTRKPYQPYAPARDFAAYRPRAKFSRSAETAANLQDPNQLYNELNLGRREEYDVLEKKRARDPEMGGKQQRRRNPQEGVYNALQKDKMAEAYSEIGTKGERRRGKGHDGLYQGLSTATKDTYDALHMQTLAPR
notes: Chimeric antigen receptor with an anti-TREM2 scFv, expressed on the surface of Jurkat NFAT cells or murine Tregs after retroviral transduction; the construct also encodes GFP
B2: construct 8 (anti-TREM2 CAR comprising a TREM2 scFv) (other)
chain: QVQLVQSGAEVKKPGASVKVSCKASGYTFTGYHMSWVRQAPGQGLEWMGVINPVSGNTVYAQKFQGRVTMTRDTSISTAYMELSRLRSEDTAVYYCARIPSYTYAFDYWGQGTLVTVSSGGGGSGGGGSGGGGSDIQMTQSPSSLSASVGDRVTITCRASQDISNYLAWYQQKPGKAPKLLIYRASSLQSGVPSRFSGSGSGTDFTLTISSLQPEDFATYYCQQHGHSPTTFGQGTKVEIKLRVFSSVVPVLQKVNSTTTKPVLRTPSPVHPTGTSQPQRPEDCRPRGSVKGTGLDFACDIYIWAPLAGICVALLLSLIITLICYHRQLWTNSRRNRLLQSDYMNMTPRRPGLTRKPYQPYAPARDFAAYRPRAKFSRSAETAANLQDPNQLYNELNLGRREEYDVLEKKRARDPEMGGKQQRRRNPQEGVYNALQKDKMAEAYSEIGTKGERRRGKGHDGLYQGLSTATKDTYDALHMQTLAPR
notes: the construct also encodes GFP
B3: construct 10 (anti-TREM2 CAR comprising a TREM2 scFv) (other)
chain: EVQLLESGGGLVQPGGSLRLSCAASGFTFSNYYMAWVRQAPGKGLEWVSSLTNSGGSTYYADSVKGRFTISRDNSKNTLYLQMNSLRAEDTAVYYCTREWAGSGYFDYWGQGTLVTVSSGGGGSGGGGSGGGGSDIQMTQSPSSLSASVGDRVTMTCKASQNVGNNLAWYQQKPGKAPKLLLYYTSNRFTGVPSRFSGSGSGTDFTLTISSVQPEDFATYYCQRIYNSPWTFGQGTKLELKLRVFSSVVPVLQKVNSTTTKPVLRTPSPVHPTGTSQPQRPEDCRPRGSVKGTGLDFACDIYIWAPLAGICVALLLSLIITLICYHRQLWTNSRRNRLLQSDYMNMTPRRPGLTRKPYQPYAPARDFAAYRPRAKFSRSAETAANLQDPNQLYNELNLGRREEYDVLEKKRARDPEMGGKQQRRRNPQEGVYNALQKDKMAEAYSEIGTKGERRRGKGHDGLYQGLSTATKDTYDALHMQTLAPR
notes: as for B1
B4: construct 7 (anti-TREM2 CAR comprising a TREM2 scFv) (other)
chain: QVQLQQSGPGLVKPSQTLSLTCAISGDSVSSSSAAWNWIRQSPSRGLEWLGHIGYRSKWYNEYAVSVKSRITINPDTSKNQFSLQLNSVTPEDTAVYYCARGMYGSVPYKEGYYFDIWGQGTLVTVSSGGGGSGGGGSGGGGSDIQMTQSPSSLSASVGDRVTITCRASQGISSDLNWYQQKPGKAPKLLIYAASNLQSGVPSRFSGSGSGTDFTLTISSLQPEDFATYYCQQYTDESMTFGQGTKVEIKLRVFSSVVPVLQKVNSTTTKPVLRTPSPVHPTGTSQPQRPEDCRPRGSVKGTGLDFACDIYIWAPLAGICVALLLSLIITLICYHRQLWTNSRRNRLLQSDYMNMTPRRPGLTRKPYQPYAPARDFAAYRPRAKFSRSAETAANLQDPNQLYNELNLGRREEYDVLEKKRARDPEMGGKQQRRRNPQEGVYNALQKDKMAEAYSEIGTKGERRRGKGHDGLYQGLSTATKDTYDALHMQTLAPR
notes: as for B1

Biological target: T1, Biotinylated Human TREM2 …
Assay: flow cytometry: CAR-transduced Jurkat NFAT cells stained with Biotinylated Human TREM2 Protein and Streptavidin APC; also sorted with the protein and streptavidin beads
Text: Constructs 3, 7, 8 and 10 are all constructs of the present invention, which comprise a CAR comprising a TREM2 scFv. Non-transduced cells (mock) and transduced cells were collected and stained for flow cytometry using Biotinylated Human TREM2 Protein (TR2-H82E7 ACRObiosystems) and Streptavidin APC as a secondary antibody. Cells were sorted using Streptavidin magnetic beads, columns (miltenyi) and Biotinylated Human TREM2 Protein (TR2-H82E7 ACRObiosystems).
On day 4 after transduction, Jurkat NFAT cells were stained for surface expression of the anti-TREM2 CARs using Biotinylated Human TREM2 Protein (TR2-H82E7 ACRObiosystems) and Streptavidin-APC as a secondary antibody. On day 7, CAR expressing cells were selected using Streptavidin magnetic beads (Streptavidin MicroBeads, 130-048-101, Miltenyi), columns (Miltenyi) and Biotinylated Human TREM2 Protein (TR2-H82E7 ACRObiosystems) and then used for subsequent activation assays.

Binder | binding result
B1 | binds
B2 | binds
B3 | binds
B4 | binds
